Experimental data taken from patent publication US20240124585A1 (SUTRO BIOPHARMA, published 2024).

T1: cynomolgus CD3 epsilon (cynomolgus monkey, UniProt Q95LI5 22-117, limits assumed)
T1 construct: Recombinant protein; also called cyno CD3E
T1 sequence: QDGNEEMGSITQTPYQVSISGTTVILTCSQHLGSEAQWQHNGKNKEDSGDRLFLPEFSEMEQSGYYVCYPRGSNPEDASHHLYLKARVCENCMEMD

T2: EpCAM on NCI-H1975 cells (UniProt P16422 24-314, limits assumed)
T2 sequence (looked up): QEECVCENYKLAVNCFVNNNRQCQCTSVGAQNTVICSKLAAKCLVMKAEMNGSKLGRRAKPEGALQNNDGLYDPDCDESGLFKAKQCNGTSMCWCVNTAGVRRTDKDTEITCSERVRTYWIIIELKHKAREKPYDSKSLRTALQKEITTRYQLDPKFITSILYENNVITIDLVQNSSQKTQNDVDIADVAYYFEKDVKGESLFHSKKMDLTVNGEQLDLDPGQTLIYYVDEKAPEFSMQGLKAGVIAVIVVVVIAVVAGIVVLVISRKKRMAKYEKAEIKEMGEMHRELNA


How the values were obtained:
[1] = target: T3, human CD3 epsilon (Acro Cat #CDE-H5223) (human, UniProt P07766 23-126); assay: ELISA, coated antigen
T3 construct: Bought recombinant protein; also called rhCD3E
T3 sequence (P07766 23-126 limits assumed): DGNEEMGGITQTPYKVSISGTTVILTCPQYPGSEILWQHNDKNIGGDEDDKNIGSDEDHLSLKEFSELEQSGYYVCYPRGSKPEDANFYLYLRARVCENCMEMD

cynomolgus CD3 epsilon = target: T1, cynomolgus CD3 epsilon; assay: ELISA, coated antigen
CD3-GE = assay: ELISA, coated antigen
[2] = target: T4, human CD3 on T-cell lines (CD3-expressing Jurkat cells; HUT78 cells) (human, UniProt P07766 23-207); assay: flow cytometry, Jurkat cells
T4 construct: On cells it stands in the CD3/TCR complex
T4 sequence (P07766 23-207 limits assumed): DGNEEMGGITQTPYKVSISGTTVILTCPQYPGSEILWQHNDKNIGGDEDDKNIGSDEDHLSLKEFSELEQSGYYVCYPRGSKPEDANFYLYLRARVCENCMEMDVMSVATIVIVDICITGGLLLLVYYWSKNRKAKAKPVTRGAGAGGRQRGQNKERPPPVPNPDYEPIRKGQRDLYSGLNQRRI

[3] = target: T5, cynomolgus CD3 delta-epsilon heterodimer (Acro Cat #CDD-C52W4) (cynomolgus monkey, UniProt Q95LI8 22-105); assay: single-point ELISA; signal on cyCD3DE over Fc
T5 construct: Bought; also called cyCD3DE
T5 sequence (Q95LI8 22-105, stated change not applied, one chain of several): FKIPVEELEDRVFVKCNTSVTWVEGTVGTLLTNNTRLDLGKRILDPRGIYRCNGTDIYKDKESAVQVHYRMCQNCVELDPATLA
Method: (§1) Following small-scale cell-free protein synthesis (60 μL reactions), each reaction was diluted 1:50 and tested for binding to CD3 protein by ELISA. Briefly, human CD3 delta-epsilon-Fc heterodimer (CD3DE-Fc, Acro Biosystems, Cat #CDD-H52WO), cynomolgus CD3 delta-epsilon heterodimer (CD3DE, Acro Cat #CDD-C52W4) and human IgG1 Fc (Acro Biosystems, Cat #FCC-H5214) were coated to 384-well Maxisorp plates in 0.2M sodium bicarbonate-carbonate pH 9.4 and blocked with […] in PBST (phosphate buffer saline, […], diluted from Teknova Cat #P2192). Antibodies expressed in CF were diluted 1:50 in 0.20% BSA in PBST and were incubated on the […] plates, washed, and detected with HRP-conjugated anti-human Fab antibodies (Jackson ImmunoResearch, West Grove, PA) and Pierce Pico Supersignal ELISA substrate (ThermoFisher Scientific).

[4] = target: T3, human CD3 epsilon (Acro Cat #CDE-H5223); assay: SPR (Biacore), scFvFc captured, rhCD3E analyte
Method: Anti-Fab or anti-Fc polyclonal antibodies were immobilized onto a CM5 chip (GE Life Sciences) using amine coupling chemistry (from Amine Coupling Kit, GE Life Sciences). The immobilization steps were carried out at a flow rate of 25 μl/min in 1×HBS-EP+ buffer (GE Life Sciences; 10× Stock diluted before use). The sensor surfaces were activated for 7 min with a mixture of NHS (0.05 M) and EDC (0.2 M). The Anti-Fab or Anti-Fc antibodies were injected over all 4 flow cells at a concentration of 25 μg/mL in 10 mM sodium acetate, pH 4.5, for 7 min. Ethanolamine (1 M, pH 8.5) was injected for 7 min to block any remaining activated groups.
Off-rate and kinetic binding experiments were performed at 25° C. using 1×HBS-EP+ buffer. Test and control antibodies were injected over the anti-Fab or anti-Fc surface at concentrations of 5-10 μg/mL for 12 seconds at a flow rate of 10 μL/min on flow cells 2, 3 and 4, followed by a buffer wash for 30 seconds at the same flow rate. […] After capturing ligand (antibody) on the anti-Fc or anti-Fab surface, the analyte (human CD3 epsilon, Acro Cat #CDE-H5223) was bound for 180 seconds, followed by a 600 second dissociation phase at a flow rate of 50 μL/min. Between each ligand capture and analyte binding cycle, regeneration was carried out using two injections of 10 mM Glycine pH 2.0 for 30 seconds at 30 μL/min, followed by a 30 second buffer wash step.
The data was fit with the Biacore T200 Evaluation software, using a 1-1 Langmuir binding model. KD (affinity, nM) was determined as a ratio of the kinetic rate constants calculated from the fits of the association and dissociation phases.

[5] = target: T6, human CD3 delta-epsilon-Fc heterodimer (Acro Biosystems, Cat #CDD-H52WO) (human, UniProt P04234 22-105); assay: single-point ELISA; signal on huCD3DE-Fc over Fc
T6 construct: Bought; also called CD3DE-Fc; huCD3DE-Fc; not shown: Fc
T6 sequence (chain, as listed by the source mutant, chain 1 of 2): as the sequence (P07766 23-126 limits assumed) above
T6 sequence (P04234 22-105, stated change not applied, chain 2 of 2): as the sequence (Q95LI8 22-105, stated change not applied, one chain of several) above, with V5I, K15N, V20I, T32S, N33D, N34I, A64T, N74S, L83V counted along it
Method: as §1

EpCAM on NCI-H1975 cells [6] = target: T2, EpCAM on NCI-H1975 cells; assay: cell-based or functional assay
EpCAM on NCI-H1975 cells [7] = target: T2, EpCAM on NCI-H1975 cells; assay: cell-based or functional assay; remark: listed apart in the source
[8] = target: T4, human CD3 on T-cell lines …; assay: flow cytometry; signal on CD3+ Jurkat over CD3- Jurkat RT3-T3.5 cells
Method: A high-throughput primary screen was performed to rapidly assess cell binding of antibodies produced in small-scale (60 μL) cell-free reactions. In this screen, four components are combined in equal volumes to a final volume of 100 μL/well in a U-bottom 96-well plate (Greiner Cat #650201) or flat bottom 384 well plate (Greiner Cat #781201). […] Plates are then incubated on ice for one hour. Cells are pelleted by spinning at 1500×g for 5 minutes and resuspended in assay buffer. High-throughput flow cytometry is then performed on resuspended cells on a FACS instrument (BD Biosciences FACS Canto II or BD Biosciences LSR II) and data is analyzed with FlowJo software. Antibody binding is assessed by the proportional level of secondary antibody signal (presumably due to binding to our antibody of interest) on Jurkat CD3-positive cells compared to the signal on Jurkat RT3.T3.5 CD3-negative cells.

Binder | EC50 [1] [nM] | ELISA Bmax (RLU) [1] [RLU] | EC50 (cynomolgus CD3 epsilon) [nM] | ELISA Bmax (RLU) (cynomolgus CD3 epsilon) | EC50 (CD3-GE) [nM] | ELISA Bmax (RLU) (CD3-GE) | Bmax [2] | Kd [2] [nM] | cyCD3DE/Fc, ELISA S/N [3] | Kd [4] [nM] | koff [4] [s⁻¹] | huCD3DE-Fc/Fc, ELISA S/N [5] | further results
Mouse SP34 (antibody, V domains shown, also called SP34 mouse monoclonal antibody; MSP34) VH: EVQLVESGGGLVQPKGSLKLSCAASGFTFNTYAMNWVRQAPGKGLEWVARIRSKYNNYATYYADSVKDRFTISRDDSQSILYLQMNNLKTEDTAMYYCVRHGNFGNSYVSWFAYWGQGTLVTVSA VL: QAVVTQESALTTSPGETVTLTCRSSTGAVTTSNYANWVQEKPDHLFTGLIGGTNKRAPGVPARFSGSLIGDKAALTITGAQTEDEAIYFCALWYSNLWVFGGGTKLTVL | 251 | 123000 | 352 | 116000 | 574 | 3610 |  |  |  |  |  |  | 
SRP2037:A03 (scFv, not shown: small tags and cut ends, tested as scFvFc) scFv: EVQLVESGGGLVKPGGSLRLSCAASGFTFSKYAMNWVRQAPGKGLEWVARIRSKYNNYATYYADSVKDRFTISRDDSKNTAYLQINSLKTEDTAVYYCVRHGNFGNSYTSYWAYWGQGTPVTVSSGGGGSGGDGSGGGGSQTVVTQEPSLTVSPGGTVTLTCGSSTGAVTSGYYPNWLQQKPGQAPRGLIGGTKFLAPGTPARFSGSLLGGKAALTLSGVQPEDEAEYYCALWYSNRWVFGGGTQLTVT |  |  |  |  |  |  | 4540 | 0.16 | 62.1 | 1.23 | 0.000235 | 55.1 | 
SRP2037:A05 (scFv, not shown: small tags and cut ends, tested as scFvFc) scFv: EVQLVESGGGLVKPGGSLRLSCAASGFTFNKYAMNWVRQAPGKGLEWVARIRSKYNNYATYYADSVKDRFTISRDDSRNTAYLQMNSLKAEDTAVYYCVRHGNFGNSYISYWAYWGQGTPVTVSSGGGGSGGDGSGGGGSQTVVTQEPSLTVSPGGTVTLTCGSSTGAVTSGYYPNWLQQKPGQAPRGLIGGTKFLAPGTPARFSGSLLGGKAALTLSGVQPEDEAEYYCALWYSNRWVFGGGTQLTVT |  |  |  |  |  |  | 5900 | 0.12 | 28.9 | 0.712 | 0.000157 | 21.2 | 
SRP2037:A04 (scFv, not shown: small tags and cut ends, tested as scFvFc) scFv: EVQLVESGGGLVKPGGSLRLSCAASGFTFNKYAMNWVRQAPGKGLEWVARIRSKYNNYATYYADSVKDRFTISRDDSKSTAYLQMNSLKTEDTAVYYCARHGNFGNSYISYWAYWGQGTPVTVSSGGGGSGGDGSGGGGSQTVVTQEPSLTVSPGGTVTLTCGSSTGAVTSGYHPNWLQQKPGQAPRGLIGGTKFLAPGTPARFSGSLLGGKAALTLSGVQPEDEAEYYCALWCSNRWVFGGGTQLTVT |  |  |  |  |  |  | 4800 | 1.7 | 19.3 | 0.367 | 3.27e-06 | 14.7 | 
aEpCAM × hOKT3 (MT110/AMG110) (bispecific antibody) MELVMTQSPSSLTVTAGEKVTMSCKSSQSLLNSGNQKNYLTWYQQKPGQPPKLLIYWASTRESGVPDRFTGSGSGTDFTLTISSVQAEDLAVYYCQNDYSYPLTFGAGTKLEIKGGGGSGGGGSGGGGSEVQLLEQSGAELVRPGTSVKISCKASGYAFTNYWLGWVKQRPGHGLEWIGDIFPGSGNIHYNEKFKGKATLTADKSSSTAYMQLSSLTFEDSAVYFCARLRNWDEPMDYWGQGTTVTVSSGGGGSDVQLVQSGAEVKKPGASVKVSCKASGYTFTRYTMHWVRQAPGQGLEWIGYINPSRGYTNYADSVKGRFTITTDKSTSTAYMELSSLRSEDTATYYCARYYDDHYCLDYWGQGTTVTVSSGEGTSTGSGGSGGSGGADDIVLTQSPATLSLSPGERATLSCRASQSVSYMNWYQQKPGKAPKRWIYDTSKVASGVPARFSGSGSGTDYSLTINSLEAEDAATYYCQQWSSNPLTFGGGTKVEIK |  |  |  |  |  |  |  |  |  |  |  |  | Cell killing Donor #1 EC50 (pM) (EpCAM on NCI-H1975 cells [6]): 8.2 pM; Cell killing Donor #2 EC50 (pM) (EpCAM on NCI-H1975 cells [6]): 4.1 pM; T-cell mediated H1975 killing, EC50 (pM) Donor 1 (EpCAM on NCI-H1975 cells [7]): 8 pM; T-cell mediated H1975 killing, EC50 (pM) Donor 2 (EpCAM on NCI-H1975 cells [7]): 4 pM
SMP1913-F09 (antibody, V domains shown, human IgG1, lambda; also called hSP34-Hc1 + SP34-Lc3; hSP34-HC1+hSP34-LC3) VH: not shown VL: QTVVTQEPSLTVSPGGTVTLTCGSSTGAVTSGYYPNWFQQKPGQAPRGLIGGTKFLAPGTPARFSGSLLGGKAALTLSGVQPEDEAEYYCALWYSNRWVFGGGTQLTVTG | 28.9 | 1.62e+06 | 35.6 | 1.57e+06 | 1110 | 1.7e+06 |  |  |  |  |  |  | FACS S/N (Jurkat/Jurkat RT3-T3.5 binding) [8]: 6.2
